Test results from the RNAGym collection of RNA variant scans (doi:10.1093/nar/gkz1192).

B1: CPEB3 Ribozyme (parent)
chain: UAACAGGGGGCCACAGCAGAAGCGUUCACGUCGCAGCCCCUGUCAGAUUCUGGUGAAUCUGCGAAUUCUGCUGUAUAUCUC

Variants of: B1
Test: self-cleavage, relative activity (ratio to wild type); higher = more cleavage; in vitro, sequencing
Procedure, shortened: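 Barcoded CPEB3 ribozyme mutants, produced by rounds of error-prone PCR, self-cleaved while being transcribed with T7 RNA polymerase for 5 hours at 37°C and during a subsequent 15 min DNase I step before EDTA was added. Sequencing of template-switched cDNA on Illumina gave cleaved and total reads, and DNA sequencing assigned barcodes to variants. Each variant's relative activity is its cleaved/total read fraction divided by the unmutated ribozyme's fraction, averaged across three batches. A variant needed a minimum of 5 reads.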

| Variant | self-cleavage |
| --- | --- |
| A77G | 1.06 |
| A77C | 0.98 |
| A77U | 1.11 |
| U76C C81A | 1.24 |
| C81G | 1.14 |
| C81U | 1.18 |
| C81A | 1.05 |
| A77G C81A | 1.2 |
| U76G A77U | 0.75 |
| A77U U80C | 1.18 |
| A77U U80A | 1.18 |
| A77U U80G | 1.26 |
| U78A C81U | 0.8 |
| C79G U80C | 0.27 |
| U76C | 1.1 |
| U76A | 1.14 |
| U76G | 0.9 |
| A75U U76C | 1.29 |
| U76A A77G | 1.01 |
| U76A A77U | 1.01 |
| C79A U80C | 1.23 |
| C79A | 1.19 |
| C79G | 1.13 |

| Variant | self-cleavage |
| --- | --- |
| C79U | 1.17 |
| A77G U80C | 1.12 |
| A77G U80G | 1.21 |
| A77G U80A | 1.18 |
| A75U U78A | 1.11 |
| A75U U78C | 1.15 |
| U78C C79G | 1.18 |
| U78C C79U | 0.84 |
| A77U U78A | 0.9 |
| A77U U78C | 1.05 |
| U76A U78G | 1.37 |
| U76A U78A | 1.09 |
| U76A U78C | 1.1 |
| U78A C79U | 1.29 |
| U80G C81U | 1.39 |
| U76G C81A | 1.14 |
| U78G U80C | 0.94 |
| U80A C81U | 1.24 |
| A77U C79A | 1.26 |
| U76A C79A | 1.2 |
| U76C U78C | 1.01 |
| U76C U78A | 1.19 |
| U80C C81A | 1.23 |

| Variant | self-cleavage |
| --- | --- |
| U80C C81U | 1.01 |
| U76C U80A | 1.26 |
| U76C U80C | 1.13 |
| U76C U80G | 1.24 |
| U78C C81U | 1.15 |
| U78C C81A | 1.21 |
| U78C C81G | 1.25 |
| U76C C79G | 1.22 |
| A77U C81A | 1.31 |
| U76A U80A | 1.17 |
| U76A U80C | 1.23 |
| A75U | 1.15 |
| U78C U80C | 0.82 |
| U78C U80A | 1.2 |
| U78C U80G | 1.15 |
| A75G U78A | 1.3 |
| A75G U78G | 0.62 |
| A75G U78C | 0.67 |
| U78A U80A | 1.23 |
| U78A U80G | 1.29 |
| U78A U80C | 1.07 |
| U78G | 1.1 |
| U78A | 1.12 |

| Variant | self-cleavage |
| --- | --- |
| U78C | 1.02 |
| C79U U80A | 1.24 |
| A75U U80C | 1.1 |
| A75U U80G | 1.26 |
| A75U U80A | 1.25 |
| A75G U76G | 0.43 |
| A75U A77U | 1.2 |
| A75U A77G | 1.18 |
| U76C A77U | 1.07 |
| U76C A77G | 1.07 |
| A77G U78G | 0.9 |
| A77G U78A | 1.17 |
| A77G U78C | 0.82 |
| A75G U80A | 1.08 |
| A75G U80G | 1.02 |
| A75G U80C | 0.65 |
| U80G | 1.18 |
| U80A | 1.13 |
| U80C | 1.08 |
| A77C U80A | 1.05 |
